Among the data in publication PMC4817253 are Km and kcat/Km values, retold here.

The data set concerns Nc1ncnc2c1ncn2[C@@H]1O[C@H](CO[P@](=O)(O)O[C@@H]2[C@H](O)[C@@H](CO[P@](=O)(O)O[C@@H]3[C@H](O)[C@@H](CO[P@](=O)(O)O[P@@](=O)(O)OP(=O)(O)O)O[C@H]3n3cnc4c(N)ncnc43)O[C@H]2n2cnc3c(N)ncnc32)[C@@H](O)[C@H]1O. Description: purified protein. Particulars: pH 7.2; 30.0 °C.
In the case of “HKU5 NS4b (Pipistrellus bat coronavirus HKU5)”, the Michaelis constant (Km) (usually the substrate concentration at which the rate is half of its maximum) is 1.3 ± 0.3 µM and the kcat/Km (usually the turnover number divided by the Michaelis constant) turned out to be 1.4e+06 M⁻¹ s⁻¹.

“MERS-CoV NS4b (Human betacoronavirus 2c EMC/2012)”: the Km is listed as 2.6 ± 0.6 µM and the kcat/Km was 800000 M⁻¹ s⁻¹.

In the case of “MHV NS2 (Murine hepatitis virus strain A59)”, the Km is recorded as 6.7 ± 1.6 µM.

For the substance SC2013 NS4b (BtVs-BetaCoV/SC2013), the Km turned out to be 2.9 ± 0.6 µM and the kcat/Km turned out to be 800000 M⁻¹ s⁻¹.
